Target: human IL-17RA extracellular domain (human), Q96F46
Assay: SPR
Conditions: ligand; chains chain; biotin on the Avi-tag (E. coli BirA), for the SPR measurements only; remark: other sources report otherwise

- Kd: 136 nM
B1: human IL-17F homodimer, Q96PD4 31-163 (protein)
chain: RKIPKVGHTFFQKPESCPPVPGGSMKLDIGIINENQRVSMSRNIESRSTSPWNYTVTWDPNRYPSEVVQAQCRNLGCINAQGKEDISMNSVPIQQETLVVRRKHQGCSVSFQLEKVLVTVGCTCVTPVIHHVQ

Reference: publication PMC5566378
